Values joined by “and” are separate entries in the source; they are usually repeats but may differ in a detail not shown here. Equal values may be shown once. Each block holds one binder with its values, some of them ahead of it.
Experiments:
[1] = molecular target: T1, Human Factor B (human, UniProt P00751 26-764); test: cell-based or functional assay
[2] = molecular target: T1, Human Factor B; test: cell-based or functional assay; remark: listed apart in the source
[3] = molecular target: T2, Plasma antichymotrypsin (ACT) (UniProt P01011 24-423); test: serpin inhibition of the protease
T2 construct: also called plasma ACT
T2 sequence (looked up): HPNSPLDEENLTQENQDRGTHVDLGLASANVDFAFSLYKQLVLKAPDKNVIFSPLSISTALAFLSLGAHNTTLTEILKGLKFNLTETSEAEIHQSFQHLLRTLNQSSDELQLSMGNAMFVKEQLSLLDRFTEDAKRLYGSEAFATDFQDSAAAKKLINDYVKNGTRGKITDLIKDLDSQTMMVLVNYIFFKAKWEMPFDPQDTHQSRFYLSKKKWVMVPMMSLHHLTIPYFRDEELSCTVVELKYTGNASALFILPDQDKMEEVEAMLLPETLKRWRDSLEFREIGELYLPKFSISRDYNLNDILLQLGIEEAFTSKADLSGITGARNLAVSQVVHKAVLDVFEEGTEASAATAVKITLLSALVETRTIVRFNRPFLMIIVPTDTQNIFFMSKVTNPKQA

T1 sequence (P00751 26-764 limits assumed): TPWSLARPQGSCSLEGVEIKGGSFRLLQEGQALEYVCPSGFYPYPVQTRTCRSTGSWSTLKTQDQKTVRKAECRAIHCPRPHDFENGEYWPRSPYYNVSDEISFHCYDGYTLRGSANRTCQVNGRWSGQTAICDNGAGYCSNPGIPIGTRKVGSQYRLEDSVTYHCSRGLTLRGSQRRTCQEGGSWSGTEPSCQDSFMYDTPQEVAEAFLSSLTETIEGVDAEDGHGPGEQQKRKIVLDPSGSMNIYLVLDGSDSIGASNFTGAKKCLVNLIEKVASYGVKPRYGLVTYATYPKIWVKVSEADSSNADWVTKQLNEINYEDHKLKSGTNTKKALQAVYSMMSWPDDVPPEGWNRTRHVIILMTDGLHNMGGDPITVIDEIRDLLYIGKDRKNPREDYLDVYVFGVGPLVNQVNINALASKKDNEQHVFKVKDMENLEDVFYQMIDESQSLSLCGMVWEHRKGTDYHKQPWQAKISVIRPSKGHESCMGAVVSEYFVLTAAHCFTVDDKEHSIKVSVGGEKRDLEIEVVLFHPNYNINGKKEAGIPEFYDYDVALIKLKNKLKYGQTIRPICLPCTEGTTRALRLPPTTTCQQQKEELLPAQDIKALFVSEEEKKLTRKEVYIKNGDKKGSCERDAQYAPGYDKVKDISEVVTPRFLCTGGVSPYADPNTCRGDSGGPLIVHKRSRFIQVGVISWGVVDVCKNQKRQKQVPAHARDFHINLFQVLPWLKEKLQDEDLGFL

- fB Cleavage EC50 [2]: 379 nM
- fB Cleavage, 80% plasma EC50 [2]: 15600 nM
- kapp [3]: 190 M⁻¹ s⁻¹
B7: chymase C22S/K40L/F41R/L99N/F173Y/S218L/A226R (enzyme)
chain: IIGGTESKPHSRPYMAYLEIVTSNGPSLRCGGFLIRRNFVLTAAHCAGRSITVTLGAHNITEEEDTWQKLEVIKQFRHPKYNTSTNHHDIMLLKLKEKASLTLAVGTLPFPSQFNFVPPGRMCRVAGWGRTGVLKPGSDTLQEVKLRLMDPQACSHYRDFDHNLQLCVGNPRKTKSAFKGDSGGPLLCAGVAQGIVSYGRLDAKPPRVFTRISHYRPWINQILQAN

- fB Cleavage EC50 [2]: 605 nM
- kapp [3]: 935 M⁻¹ s⁻¹
B9: chymase C22S/S189T/A190S/A226R (enzyme)
chain: IIGGTESKPHSRPYMAYLEIVTSNGPSKFCGGFLIRRNFVLTAAHCAGRSITVTLGAHNITEEEDTWQKLEVIKQFRHPKYNTSTLHHDIMLLKLKEKASLTLAVGTLPFPSQFNFVPPGRMCRVAGWGRTGVLKPGSDTLQEVKLRLMDPQACSHFRDFDHNLQLCVGNPRKTKTSFKGDSGGPLLCAGVAQGIVSYGRSDAKPPRVFTRISHYRPWINQILQAN

- fB Cleavage, 80% plasma EC50 [2]: 11200 nM
- kapp [3]: 317 M⁻¹ s⁻¹
B10: chymase C22S/K40M/F41R/L99N/G151S/F173Y/S218L/A226R (enzyme)
chain: IIGGTESKPHSRPYMAYLEIVTSNGPSMRCGGFLIRRNFVLTAAHCAGRSITVTLGAHNITEEEDTWQKLEVIKQFRHPKYNTSTNHHDIMLLKLKEKASLTLAVGTLPFPSQFNFVPPGRMCRVAGWGRTGVLKPSSDTLQEVKLRLMDPQACSHYRDFDHNLQLCVGNPRKTKSAFKGDSGGPLLCAGVAQGIVSYGRLDAKPPRVFTRISHYRPWINQILQAN

- fB Cleavage, 80% plasma EC50 [2]: 17100 nM
- kapp [3]: 252 M⁻¹ s⁻¹
B13: chymase C22S/K40L/F41L/L99N/G151H/F173Y/S218V/A226R (enzyme)
chain: IIGGTESKPHSRPYMAYLEIVTSNGPSLLCGGFLIRRNFVLTAAHCAGRSITVTLGAHNITEEEDTWQKLEVIKQFRHPKYNTSTNHHDIMLLKLKEKASLTLAVGTLPFPSQFNFVPPGRMCRVAGWGRTGVLKPHSDTLQEVKLRLMDPQACSHYRDFDHNLQLCVGNPRKTKSAFKGDSGGPLLCAGVAQGIVSYGRVDAKPPRVFTRISHYRPWINQILQAN

- fB Cleavage EC50 [2]: 119 nM
- fB Cleavage, 80% plasma EC50 [2]: 4090 nM and 3760 nM
- kapp [3]: 37 M⁻¹ s⁻¹
B14: chymase C22S/K40L/F41R/L99N/F173Y/D175N/S218L/A226R (enzyme)
chain: IIGGTESKPHSRPYMAYLEIVTSNGPSLRCGGFLIRRNFVLTAAHCAGRSITVTLGAHNITEEEDTWQKLEVIKQFRHPKYNTSTNHHDIMLLKLKEKASLTLAVGTLPFPSQFNFVPPGRMCRVAGWGRTGVLKPGSDTLQEVKLRLMDPQACSHYRNFDHNLQLCVGNPRKTKSAFKGDSGGPLLCAGVAQGIVSYGRLDAKPPRVFTRISHYRPWINQILQAN
notes: also called MS No. 15

Further lines, the binder ahead of its results:

B1: MTSP-1 A77aT/F94Y/C122S/D125G (enzyme)
chain: VVGGTDADEGEWPWQVSLHALGQGHICGASLISPNWLVSAAHCYIDDRGFRYSDPTQWTAFLGLHDQSQRSTPGVQERRLKRIISHPFYNDFTFDYDIALLELEKPAEYSSMVRPISLPGASHVFPAGKAIWVTGWGHTQYGGTGALILQKGEIRVINQTTCENLLPQQITPRMMCVGFLSGGVDSCQGDSGGPLSSVEADGRIFQAGVVSWGDGCAQRNKPGVYTRLPLFRDWIKENTGV
- Hu fB Add-Back EC50 [1]: 65.9 nM and 125 nM

B2: MTSP-1 I41G/F97D/F99L/C122S/Y146D/C[17]S/C[19]S (enzyme)
chain: VVGGTDADEGEWPWQVSLHALGQGHGCGASLISPNWLVSAAHCYIDDRGFRYSDPTQWTAFLGLHDQSQRSAPGVQERRLKRIISHPFFNDDTLDYDIALLELEKPAEYSSMVRPISLPDASHVFPAGKAIWVTGWGHTQDGGTGALILQKGEIRVINQTTCENLLPQQITPRMMCVGFLSGGVDSCQGDSGGPLSSVEADGRIFQAGVVSWGDGCAQRNKPGVYTRLPLFRDWIKENTGV
- Hu fB Add-Back EC50 [1]: 283 nM and 395 nM

B3: MTSP-1 I41G/F97E/F99L/C122S/C[17]S/C[19]S (enzyme)
chain: VVGGTDADEGEWPWQVSLHALGQGHGCGASLISPNWLVSAAHCYIDDRGFRYSDPTQWTAFLGLHDQSQRSAPGVQERRLKRIISHPFFNDETLDYDIALLELEKPAEYSSMVRPISLPDASHVFPAGKAIWVTGWGHTQYGGTGALILQKGEIRVINQTTCENLLPQQITPRMMCVGFLSGGVDSCQGDSGGPLSSVEADGRIFQAGVVSWGDGCAQRNKPGVYTRLPLFRDWIKENTGV
- Hu fB Add-Back EC50 [1]: 362 nM and 358 nM and 292 nM

B4: MTSP-1 I41A/F97D/F99L/C122S (enzyme)
chain: VVGGTDADEGEWPWQVSLHALGQGHACGASLISPNWLVSAAHCYIDDRGFRYSDPTQWTAFLGLHDQSQRSAPGVQERRLKRIISHPFFNDDTLDYDIALLELEKPAEYSSMVRPISLPDASHVFPAGKAIWVTGWGHTQYGGTGALILQKGEIRVINQTTCENLLPQQITPRMMCVGFLSGGVDSCQGDSGGPLSSVEADGRIFQAGVVSWGDGCAQRNKPGVYTRLPLFRDWIKENTGV
- Hu fB Add-Back EC50 [1]: 283 nM

B5: MTSP-1 I41N/F97D/F99L/C122S/C[17]S/C[19]S (enzyme)
chain: VVGGTDADEGEWPWQVSLHALGQGHNCGASLISPNWLVSAAHCYIDDRGFRYSDPTQWTAFLGLHDQSQRSAPGVQERRLKRIISHPFFNDDTLDYDIALLELEKPAEYSSMVRPISLPDASHVFPAGKAIWVTGWGHTQYGGTGALILQKGEIRVINQTTCENLLPQQITPRMMCVGFLSGGVDSCQGDSGGPLSSVEADGRIFQAGVVSWGDGCAQRNKPGVYTRLPLFRDWIKENTGV
- Hu fB Add-Back EC50 [1]: 223 nM

B6: chymase C22S/K40L/F41H/L99N/F173Y/S218L/A226R (enzyme)
chain: IIGGTESKPHSRPYMAYLEIVTSNGPSLHCGGFLIRRNFVLTAAHCAGRSITVTLGAHNITEEEDTWQKLEVIKQFRHPKYNTSTNHHDIMLLKLKEKASLTLAVGTLPFPSQFNFVPPGRMCRVAGWGRTGVLKPGSDTLQEVKLRLMDPQACSHYRDFDHNLQLCVGNPRKTKSAFKGDSGGPLLCAGVAQGIVSYGRLDAKPPRVFTRISHYRPWINQILQAN
- fB Cleavage, 80% plasma EC50 [2]: 13900 nM
- kapp [3]: 193 M⁻¹ s⁻¹

B8: chymase C22S/K40L/F41K/L99N/F173Y/D175N/S218L/A226R (enzyme)
chain: IIGGTESKPHSRPYMAYLEIVTSNGPSLKCGGFLIRRNFVLTAAHCAGRSITVTLGAHNITEEEDTWQKLEVIKQFRHPKYNTSTNHHDIMLLKLKEKASLTLAVGTLPFPSQFNFVPPGRMCRVAGWGRTGVLKPGSDTLQEVKLRLMDPQACSHYRNFDHNLQLCVGNPRKTKSAFKGDSGGPLLCAGVAQGIVSYGRLDAKPPRVFTRISHYRPWINQILQAN
notes: also called MS No. 8
- fB Cleavage, 80% plasma EC50 [2]: 5700 nM
- kapp [3]: 28 M⁻¹ s⁻¹

B11: chymase C22S/K40L/F41K/L99H/F173Y/S218L/A226R (enzyme)
chain: IIGGTESKPHSRPYMAYLEIVTSNGPSLKCGGFLIRRNFVLTAAHCAGRSITVTLGAHNITEEEDTWQKLEVIKQFRHPKYNTSTHHHDIMLLKLKEKASLTLAVGTLPFPSQFNFVPPGRMCRVAGWGRTGVLKPGSDTLQEVKLRLMDPQACSHYRDFDHNLQLCVGNPRKTKSAFKGDSGGPLLCAGVAQGIVSYGRLDAKPPRVFTRISHYRPWINQILQAN
- fB Cleavage, 80% plasma EC50 [2]: 14800 nM
- kapp [3]: 147 M⁻¹ s⁻¹

B12: chymase C22S/K40L/F41K/L99H/G151S/F173Y/S218L/A226R (enzyme)
chain: IIGGTESKPHSRPYMAYLEIVTSNGPSLKCGGFLIRRNFVLTAAHCAGRSITVTLGAHNITEEEDTWQKLEVIKQFRHPKYNTSTHHHDIMLLKLKEKASLTLAVGTLPFPSQFNFVPPGRMCRVAGWGRTGVLKPSSDTLQEVKLRLMDPQACSHYRDFDHNLQLCVGNPRKTKSAFKGDSGGPLLCAGVAQGIVSYGRLDAKPPRVFTRISHYRPWINQILQAN
- fB Cleavage, 80% plasma EC50 [2]: 17200 nM
- kapp [3]: 139 M⁻¹ s⁻¹

B15: MTSP-1 F97L/T98G/F99V/C122S/C[17]S/C[19]S/-null_D96insD (enzyme)
chain: VVGGTDADEGEWPWQVSLHALGQGHICGASLISPNWLVSAAHCYIDDRGFRYSDPTQWTAFLGLHDQSQRSAPGVQERRLKRIISHPFFNDDLGVDYDIALLELEKPAEYSSMVRPISLPDASHVFPAGKAIWVTGWGHTQYGGTGALILQKGEIRVINQTTCENLLPQQITPRMMCVGFLSGGVDSCQGDSGGPLSSVEADGRIFQAGVVSWGDGCAQRNKPGVYTRLPLFRDWIKENTGV
- Hu fB Add-Back EC50 [1]: 4590 nM and 3490 nM

Source: patent US20240117334A1 (VERTEX PHARMACEUTICALS, published 2024)
